Measured values published in IntAct's records for PubMed 35512704.

B1: Mothers against decapentaplegic homolog 4 (Homo sapiens), Q13485 (parent)
chain: MDNMSITNTPTSNDACLSIVHSLMCHRQGGESETFAKRAIESLVKKLKEKKDELDSLITAITTNGAHPSKCVTIQRTLDGRLQVAGRKGFPHVIYARLWRWPDLHKNELKHVKYCQYAFDLKCDSVCVNPYHYERVVSPGIDLSGLTLQSNAPSSMMVKDEYVHDFEGQPSLSTEGHSIQTIQHPPSNRASTETYSTPALLAPSESNATSTANFPNIPVASTSQPASILGGSHSEGLLQIASGPQPGQQQNGFTGQPATYHHNSTTTWTGSRTAPYTPNLPHHQNGHLQHHPPMPPHPGHYWPVHNELAFQPPISNHPAPEYWCSIAYFEMDVQVGETFKVPSSCPIVTVDGYVDPSGGDRFCLGQLSNVHRTEAIERARLHIGKGVQLECKGEGDVWVRCLSDHAVFVQSYYLDREAGRAPGDAVHKIYPSAYIKVFDLRQCHRQMQQQAATAQAAAAAQAAAVAGNIPGPGSVGGIAPAISLSAAAGIGVDDLRRLCILRMSFVKGWGPDYPRQSIKETPCWIEIHLHRALQLLDEVLHTMPIADPQPLD
partner: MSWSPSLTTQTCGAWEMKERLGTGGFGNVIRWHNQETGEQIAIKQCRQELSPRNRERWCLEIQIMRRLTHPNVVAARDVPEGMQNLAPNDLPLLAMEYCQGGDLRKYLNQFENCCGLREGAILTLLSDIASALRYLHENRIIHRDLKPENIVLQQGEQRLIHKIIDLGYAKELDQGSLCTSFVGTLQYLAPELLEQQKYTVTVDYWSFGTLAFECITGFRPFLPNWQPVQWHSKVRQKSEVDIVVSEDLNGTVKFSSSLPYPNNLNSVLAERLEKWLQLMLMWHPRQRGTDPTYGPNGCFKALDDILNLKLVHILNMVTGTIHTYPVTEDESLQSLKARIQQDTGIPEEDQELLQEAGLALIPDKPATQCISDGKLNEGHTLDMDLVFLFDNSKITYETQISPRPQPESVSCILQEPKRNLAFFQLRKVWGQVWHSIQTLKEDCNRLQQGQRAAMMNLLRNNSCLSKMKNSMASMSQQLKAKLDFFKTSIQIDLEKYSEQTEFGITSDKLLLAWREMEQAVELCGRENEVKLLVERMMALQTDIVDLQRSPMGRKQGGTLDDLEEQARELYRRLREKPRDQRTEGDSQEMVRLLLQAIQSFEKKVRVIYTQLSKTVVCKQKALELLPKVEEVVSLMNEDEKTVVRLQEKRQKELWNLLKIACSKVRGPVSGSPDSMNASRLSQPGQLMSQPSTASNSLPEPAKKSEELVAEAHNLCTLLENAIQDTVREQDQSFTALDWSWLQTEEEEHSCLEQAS
B2: Mothers against decapentaplegic homolog 4 (Homo sapiens), Q13485 (parent)
chain: B1 chain
partner: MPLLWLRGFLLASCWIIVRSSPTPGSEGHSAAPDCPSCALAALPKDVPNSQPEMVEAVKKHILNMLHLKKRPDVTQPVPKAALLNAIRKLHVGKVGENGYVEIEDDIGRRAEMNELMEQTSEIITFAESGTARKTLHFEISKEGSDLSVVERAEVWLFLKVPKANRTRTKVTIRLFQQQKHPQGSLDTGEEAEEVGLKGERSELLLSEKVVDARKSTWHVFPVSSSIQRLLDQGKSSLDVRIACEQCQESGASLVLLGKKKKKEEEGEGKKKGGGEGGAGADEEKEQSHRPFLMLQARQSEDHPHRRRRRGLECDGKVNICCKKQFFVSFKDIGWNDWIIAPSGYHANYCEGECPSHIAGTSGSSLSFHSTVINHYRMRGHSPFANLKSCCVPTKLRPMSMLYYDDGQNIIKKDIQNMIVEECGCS
B3: Mothers against decapentaplegic homolog 4 (Homo sapiens), Q13485 (parent)
chain: B1 chain
partner: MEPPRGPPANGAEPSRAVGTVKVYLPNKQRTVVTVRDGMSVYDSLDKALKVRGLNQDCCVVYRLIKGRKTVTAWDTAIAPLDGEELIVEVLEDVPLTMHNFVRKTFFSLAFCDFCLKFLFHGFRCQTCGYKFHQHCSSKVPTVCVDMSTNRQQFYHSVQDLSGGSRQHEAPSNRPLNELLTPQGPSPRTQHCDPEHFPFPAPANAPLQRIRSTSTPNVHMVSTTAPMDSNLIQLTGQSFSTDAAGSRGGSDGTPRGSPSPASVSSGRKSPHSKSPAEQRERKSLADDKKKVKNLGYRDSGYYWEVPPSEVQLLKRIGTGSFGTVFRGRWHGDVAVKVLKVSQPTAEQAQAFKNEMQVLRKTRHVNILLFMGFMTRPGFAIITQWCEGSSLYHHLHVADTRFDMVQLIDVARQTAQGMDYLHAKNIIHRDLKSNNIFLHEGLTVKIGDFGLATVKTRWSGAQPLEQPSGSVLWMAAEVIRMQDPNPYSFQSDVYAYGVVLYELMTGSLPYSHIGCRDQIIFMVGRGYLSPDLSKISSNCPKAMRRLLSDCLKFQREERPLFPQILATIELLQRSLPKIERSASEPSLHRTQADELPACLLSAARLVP
B4: Mothers against decapentaplegic homolog 4 (Homo sapiens), Q13485 (parent)
chain: B1 chain
partner: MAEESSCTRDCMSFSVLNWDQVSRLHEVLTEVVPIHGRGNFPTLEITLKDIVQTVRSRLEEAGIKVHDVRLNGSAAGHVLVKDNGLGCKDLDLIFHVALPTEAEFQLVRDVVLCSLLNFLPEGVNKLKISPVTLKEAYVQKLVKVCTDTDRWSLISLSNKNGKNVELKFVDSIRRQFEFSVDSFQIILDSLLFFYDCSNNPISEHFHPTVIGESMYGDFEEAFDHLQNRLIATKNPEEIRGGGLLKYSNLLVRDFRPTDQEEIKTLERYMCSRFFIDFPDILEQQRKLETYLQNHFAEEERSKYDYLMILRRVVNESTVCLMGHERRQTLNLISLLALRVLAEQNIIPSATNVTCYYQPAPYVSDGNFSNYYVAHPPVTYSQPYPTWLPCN
B5: Mothers against decapentaplegic homolog 4 (Homo sapiens), Q13485 (parent)
chain: B1 chain
partner: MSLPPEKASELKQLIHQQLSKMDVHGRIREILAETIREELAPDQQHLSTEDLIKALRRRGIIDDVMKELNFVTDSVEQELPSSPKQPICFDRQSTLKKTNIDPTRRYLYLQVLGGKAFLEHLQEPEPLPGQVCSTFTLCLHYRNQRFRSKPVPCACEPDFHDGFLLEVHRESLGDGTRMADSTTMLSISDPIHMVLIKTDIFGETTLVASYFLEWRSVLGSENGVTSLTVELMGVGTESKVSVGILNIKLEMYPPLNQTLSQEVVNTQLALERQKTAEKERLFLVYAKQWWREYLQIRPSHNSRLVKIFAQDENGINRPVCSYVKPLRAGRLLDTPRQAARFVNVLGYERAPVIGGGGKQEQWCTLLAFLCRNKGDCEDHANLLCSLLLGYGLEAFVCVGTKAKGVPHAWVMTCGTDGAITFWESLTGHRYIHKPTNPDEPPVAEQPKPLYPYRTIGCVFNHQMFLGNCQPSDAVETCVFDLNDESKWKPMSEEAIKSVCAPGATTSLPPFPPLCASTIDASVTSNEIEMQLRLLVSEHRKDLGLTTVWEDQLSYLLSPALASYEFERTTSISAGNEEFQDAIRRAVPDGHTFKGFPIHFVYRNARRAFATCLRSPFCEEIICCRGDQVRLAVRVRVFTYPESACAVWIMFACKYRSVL
B6: Mothers against decapentaplegic homolog 4 (Homo sapiens), Q13485 (parent)
chain: B1 chain
partner: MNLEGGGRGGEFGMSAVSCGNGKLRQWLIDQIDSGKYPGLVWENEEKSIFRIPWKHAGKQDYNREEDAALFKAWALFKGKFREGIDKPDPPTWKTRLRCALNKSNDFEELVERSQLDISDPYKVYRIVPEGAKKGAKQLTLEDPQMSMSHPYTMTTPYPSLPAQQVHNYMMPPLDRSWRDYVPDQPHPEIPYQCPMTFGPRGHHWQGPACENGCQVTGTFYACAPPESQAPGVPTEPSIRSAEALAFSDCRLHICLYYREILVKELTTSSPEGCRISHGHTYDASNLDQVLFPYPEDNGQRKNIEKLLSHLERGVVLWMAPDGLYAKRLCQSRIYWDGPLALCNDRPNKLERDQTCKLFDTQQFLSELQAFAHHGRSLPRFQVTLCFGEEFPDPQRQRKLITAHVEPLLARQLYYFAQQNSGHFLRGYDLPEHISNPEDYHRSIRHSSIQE
B7: Mothers against decapentaplegic homolog 4 (Homo sapiens), Q13485 (parent)
chain: B1 chain
partner: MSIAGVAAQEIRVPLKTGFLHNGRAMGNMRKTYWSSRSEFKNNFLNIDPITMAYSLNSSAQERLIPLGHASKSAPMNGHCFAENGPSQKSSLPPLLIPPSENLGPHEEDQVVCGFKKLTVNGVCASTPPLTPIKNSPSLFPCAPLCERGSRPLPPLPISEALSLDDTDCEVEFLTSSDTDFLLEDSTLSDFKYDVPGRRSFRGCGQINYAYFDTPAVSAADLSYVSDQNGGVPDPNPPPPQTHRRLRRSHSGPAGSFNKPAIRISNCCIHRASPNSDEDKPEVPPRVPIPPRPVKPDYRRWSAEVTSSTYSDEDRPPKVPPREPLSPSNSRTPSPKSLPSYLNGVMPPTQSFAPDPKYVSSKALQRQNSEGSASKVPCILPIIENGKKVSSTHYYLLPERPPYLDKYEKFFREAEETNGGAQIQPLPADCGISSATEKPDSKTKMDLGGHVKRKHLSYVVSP

Variants of: B1
Settings: with ikkb_human IKBKB

effect of a mutation on the interaction	Variant
with no effect	R361C

Variants of: B2
Settings: with inhba_human INHBA

effect of a mutation on the interaction	Variant
with no effect	R361H

Variants of: B2
Settings: with inhba_human INHBA
Remark: another data set of the same source

effect of a mutation on the interaction	Variant
with no effect	R361C

Variants of: B2
Settings: with inhba_human INHBA
Remark: another data set of the same source

effect of a mutation on the interaction	Variant
with no effect	G386D

Variants of: B2
Settings: with inhba_human INHBA
Remark: another data set of the same source

effect of a mutation on the interaction	Variant
with no effect	D351H

Variants of: B3
Settings: with araf_human ARAF

effect of a mutation on the interaction	Variant
with no effect	D351H

Variants of: B3
Settings: with araf_human ARAF
Remark: another data set of the same source

effect of a mutation on the interaction	Variant
with no effect	R361C

Variants of: B3
Settings: with araf_human ARAF
Remark: another data set of the same source

effect of a mutation on the interaction	Variant
with no effect	R361H

Variants of: B3
Settings: with araf_human ARAF
Remark: another data set of the same source

effect of a mutation on the interaction	Variant
with no effect	G386D

Variants of: B3
Settings: with araf_human ARAF
Remark: another data set of the same source

effect of a mutation on the interaction	Variant
increasing interaction strength	G386D

Variants of: B4
Settings: with tet5c_human TENT5C

effect of a mutation on the interaction	Variant
with no effect	G386D

Variants of: B4
Settings: with tet5c_human TENT5C
Remark: another data set of the same source

effect of a mutation on the interaction	Variant
with no effect	R361H

Variants of: B4
Settings: with tet5c_human TENT5C
Remark: another data set of the same source

effect of a mutation on the interaction	Variant
with no effect	R361C

Variants of: B4
Settings: with tet5c_human TENT5C
Remark: another data set of the same source

effect of a mutation on the interaction	Variant
with no effect	D351H

Variants of: B5
Settings: with cep76_human CEP76, Q8TAP6

effect of a mutation on the interaction	Variant
with no effect	D351H

Variants of: B5
Settings: with cep76_human CEP76, Q8TAP6
Remark: another data set of the same source

effect of a mutation on the interaction	Variant
with no effect	R361C

Variants of: B5
Settings: with cep76_human CEP76, Q8TAP6
Remark: another data set of the same source

effect of a mutation on the interaction	Variant
with no effect	R361H

Variants of: B6
Settings: with irf4_human IRF4, Q15306

effect of a mutation on the interaction	Variant
with no effect	D351H

Variants of: B6
Settings: with irf4_human IRF4, Q15306
Remark: another data set of the same source

effect of a mutation on the interaction	Variant
with no effect	G386D

Variants of: B6
Settings: with irf4_human IRF4, Q15306
Remark: another data set of the same source

effect of a mutation on the interaction	Variant
with no effect	R361H

Variants of: B6
Settings: with irf4_human IRF4, Q15306
Remark: another data set of the same source

effect of a mutation on the interaction	Variant
with no effect	R361C

Variants of: B7
Settings: with errfi_human ERRFI1, Q9UJM3

effect of a mutation on the interaction	Variant
with no effect	D351H

Variants of: B7
Settings: with errfi_human ERRFI1, Q9UJM3
Remark: another data set of the same source

effect of a mutation on the interaction	Variant
with no effect	R361H

Variants of: B7
Settings: with errfi_human ERRFI1, Q9UJM3
Remark: another data set of the same source

effect of a mutation on the interaction	Variant
with no effect	R361C
